Source: PMC9482650, “Quantitative fragmentomics allow affinity mapping of interactomes” (Nature Communications, 2022)

T1: APBA2_1, Q99767
T1 sequence (Q99767 563-664, limits assumed, looked up): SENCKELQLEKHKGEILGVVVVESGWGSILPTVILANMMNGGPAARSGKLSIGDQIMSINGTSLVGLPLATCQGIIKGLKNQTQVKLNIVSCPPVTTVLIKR

T2: DFNB31_3, Q9P202
T2 sequence (Q9P202 811-907, limits assumed, looked up): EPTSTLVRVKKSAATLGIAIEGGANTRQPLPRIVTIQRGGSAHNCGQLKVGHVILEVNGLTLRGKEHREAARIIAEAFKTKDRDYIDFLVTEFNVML

T3: DLG3_1, Q92796
T3 sequence (Q92796 125-227, limits assumed, looked up): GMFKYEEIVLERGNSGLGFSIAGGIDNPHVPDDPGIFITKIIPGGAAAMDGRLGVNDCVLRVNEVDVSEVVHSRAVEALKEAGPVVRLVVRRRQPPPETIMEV

T4: HTRA3, P83110
T4 sequence (P83110 354-453, limits assumed, looked up): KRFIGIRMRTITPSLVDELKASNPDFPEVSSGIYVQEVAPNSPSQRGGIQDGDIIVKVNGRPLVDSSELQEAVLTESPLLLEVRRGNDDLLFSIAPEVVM

T5: LNX2_2, Q8N448
T5 sequence (Q8N448 334-432, limits assumed, looked up): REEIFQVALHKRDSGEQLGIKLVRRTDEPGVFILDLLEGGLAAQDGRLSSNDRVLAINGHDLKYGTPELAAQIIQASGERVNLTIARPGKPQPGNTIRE

T6: MPDZ_10, O75970
T6 sequence (O75970 1624-1722, limits assumed, looked up): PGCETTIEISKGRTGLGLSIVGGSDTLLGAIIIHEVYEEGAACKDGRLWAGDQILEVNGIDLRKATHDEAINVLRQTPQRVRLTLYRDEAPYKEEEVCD

T7: MPP6, Q9NZW5
T7 sequence (Q9NZW5 125-219, limits assumed, looked up): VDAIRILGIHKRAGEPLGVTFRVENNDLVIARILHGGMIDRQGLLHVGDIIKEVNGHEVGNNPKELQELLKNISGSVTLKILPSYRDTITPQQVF

T8: NHERF3_1, Q5T2W1
T8 sequence (Q5T2W1 4-100, limits assumed, looked up): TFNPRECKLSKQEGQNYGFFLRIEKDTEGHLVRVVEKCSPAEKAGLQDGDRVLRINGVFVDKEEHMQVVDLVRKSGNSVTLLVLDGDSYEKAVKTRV

T9: NHERF3_3, Q5T2W1
T9 sequence (Q5T2W1 238-333, limits assumed, looked up): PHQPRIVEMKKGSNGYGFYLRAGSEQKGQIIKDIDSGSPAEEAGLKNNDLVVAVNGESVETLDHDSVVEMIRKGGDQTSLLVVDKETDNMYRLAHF

T10: RAPGEF6, Q8TEU7
T10 sequence (Q8TEU7 525-625, limits assumed, looked up): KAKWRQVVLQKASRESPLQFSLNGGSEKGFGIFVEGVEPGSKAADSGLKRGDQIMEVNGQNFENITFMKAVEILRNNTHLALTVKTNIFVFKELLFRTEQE

T11: SNTA1, Q13424
T11 sequence (Q13424 82-180, limits assumed, looked up): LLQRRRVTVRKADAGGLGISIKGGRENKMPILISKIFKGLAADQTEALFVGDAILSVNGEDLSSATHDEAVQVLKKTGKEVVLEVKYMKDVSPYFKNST

T12: TJP3_3, O95049
T12 sequence (O95049 375-456, limits assumed, looked up): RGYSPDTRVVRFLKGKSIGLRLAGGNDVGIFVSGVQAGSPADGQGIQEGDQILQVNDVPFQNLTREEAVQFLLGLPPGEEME


What was measured:
Test in all cases: holdup assay
Set-up in all cases: key: below the threshold = too weak to quantify, mostly under pKd 3.1 to 4
Conditions in all cases: plain residues with an end cap or a label only (N-terminal biotin on a linker: ado-ado)
AHNAK1, Q09666 = target: AHNAK1, Q09666
Sequence of AHNAK1, Q09666 (Q09666 4-100): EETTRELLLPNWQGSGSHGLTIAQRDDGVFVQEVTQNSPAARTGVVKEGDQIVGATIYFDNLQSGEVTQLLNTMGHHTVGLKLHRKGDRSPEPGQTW

APBA2_1, Q99767 = target: T1, APBA2_1, Q99767
DFNB31_3, Q9P202 = target: T2, DFNB31_3, Q9P202
DLG1_2, Q12959 = target: DLG1_2, Q12959
Sequence of DLG1_2, Q12959 (Q12959 314-412): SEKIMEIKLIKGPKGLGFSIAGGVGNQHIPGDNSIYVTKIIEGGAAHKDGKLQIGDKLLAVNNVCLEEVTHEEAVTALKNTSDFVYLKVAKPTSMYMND

DLG1_3, Q12959 = target: DLG1_3, Q12959
Sequence of DLG1_3, Q12959 (Q12959 457-571): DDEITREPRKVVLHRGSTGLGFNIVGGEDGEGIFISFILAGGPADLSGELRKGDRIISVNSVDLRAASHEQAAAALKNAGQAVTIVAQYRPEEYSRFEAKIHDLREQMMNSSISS

DLG3_1, Q92796 = target: T3, DLG3_1, Q92796
GORASP1, Q9BQQ3 = target: GORASP1, Q9BQQ3
Sequence of GORASP1, Q9BQQ3 (Q9BQQ3 1-208): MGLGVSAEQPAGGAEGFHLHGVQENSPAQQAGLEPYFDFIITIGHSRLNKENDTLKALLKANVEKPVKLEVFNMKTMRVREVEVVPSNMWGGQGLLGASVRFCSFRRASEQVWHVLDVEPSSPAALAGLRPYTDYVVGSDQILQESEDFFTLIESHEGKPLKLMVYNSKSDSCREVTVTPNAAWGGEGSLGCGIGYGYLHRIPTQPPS

HTRA3, P83110 = target: T4, HTRA3, P83110
Inadl_2, Q8NI35 = target: Inadl_2, Q8NI35
Sequence of Inadl_2, Q8NI35 (Q8NI35 238-335): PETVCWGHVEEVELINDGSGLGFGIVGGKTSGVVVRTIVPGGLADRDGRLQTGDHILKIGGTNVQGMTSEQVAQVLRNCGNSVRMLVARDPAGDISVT

Inadl_9, Q8NI35 = target: Inadl_9, Q8NI35
Sequence of Inadl_9, Q8NI35 (Q8NI35 1530-1615): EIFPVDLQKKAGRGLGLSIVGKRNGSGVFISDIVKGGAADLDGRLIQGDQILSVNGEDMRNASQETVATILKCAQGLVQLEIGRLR

LDB3, O75112 = target: LDB3, O75112
Sequence of LDB3, O75112 (O75112 1-94): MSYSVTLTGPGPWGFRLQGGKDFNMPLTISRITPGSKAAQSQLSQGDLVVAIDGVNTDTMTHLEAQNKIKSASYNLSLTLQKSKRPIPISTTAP

LNX1_2, Q8TBB1 = target: LNX1_2, Q8TBB1
Sequence of LNX1_2, Q8TBB1 (Q8TBB1 371-470): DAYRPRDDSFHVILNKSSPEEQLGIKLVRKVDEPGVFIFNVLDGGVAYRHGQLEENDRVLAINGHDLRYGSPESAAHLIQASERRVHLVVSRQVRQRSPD

LNX2_2, Q8N448 = target: T5, LNX2_2, Q8N448
MAGI1_2, Q96QZ7 = target: MAGI1_2, Q96QZ7
Sequence of MAGI1_2, Q96QZ7 (Q96QZ7 456-580): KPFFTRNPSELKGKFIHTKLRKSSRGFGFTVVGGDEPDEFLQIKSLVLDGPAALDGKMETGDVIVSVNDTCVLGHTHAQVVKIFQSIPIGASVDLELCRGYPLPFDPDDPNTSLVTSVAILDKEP

MPDZ_10, O75970 = target: T6, MPDZ_10, O75970
MPP6, Q9NZW5 = target: T7, MPP6, Q9NZW5
NHERF3_1, Q5T2W1 = target: T8, NHERF3_1, Q5T2W1
NHERF3_3, Q5T2W1 = target: T9, NHERF3_3, Q5T2W1
NHERF4_1, Q86UT5-2 = target: NHERF4_1, Q86UT5-2
Sequence of NHERF4_1, Q86UT5-2 (Q86UT5 other isoform, or with tags, fused parts or gaps): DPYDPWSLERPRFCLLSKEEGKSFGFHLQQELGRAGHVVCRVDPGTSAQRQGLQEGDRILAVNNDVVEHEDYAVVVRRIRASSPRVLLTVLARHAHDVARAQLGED

NOS1, P29475 = target: NOS1, P29475
Sequence of NOS1, P29475 (P29475 9-101): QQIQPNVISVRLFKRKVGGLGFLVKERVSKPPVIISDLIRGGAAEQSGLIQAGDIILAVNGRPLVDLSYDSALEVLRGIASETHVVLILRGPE

PDLIM1, O00151 = target: PDLIM1, O00151
Sequence of PDLIM1, O00151 (O00151 1-87): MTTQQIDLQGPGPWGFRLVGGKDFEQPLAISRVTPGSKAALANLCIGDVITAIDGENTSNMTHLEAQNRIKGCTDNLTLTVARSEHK

PICK1, Q9NRD5 = target: PICK1, Q9NRD5
Sequence of PICK1, Q9NRD5 (Q9NRD5 17-115): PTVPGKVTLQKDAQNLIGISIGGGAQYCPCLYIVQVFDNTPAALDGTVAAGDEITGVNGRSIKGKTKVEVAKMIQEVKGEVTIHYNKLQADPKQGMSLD

RAPGEF6, Q8TEU7 = target: T10, RAPGEF6, Q8TEU7
SCRIB_3, Q14160 = target: SCRIB_3, Q14160
Sequence of SCRIB_3, Q14160 (Q14160 999-1103): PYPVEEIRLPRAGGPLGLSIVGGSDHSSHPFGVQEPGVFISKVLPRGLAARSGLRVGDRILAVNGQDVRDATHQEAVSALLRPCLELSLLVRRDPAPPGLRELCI

SNTA1, Q13424 = target: T11, SNTA1, Q13424
TJP3_3, O95049 = target: T12, TJP3_3, O95049

pKd (AHNAK1, Q09666) | pKd (APBA2_1, Q99767) | pKd (DFNB31_3, Q9P202) | pKd (DLG1_2, Q12959) | pKd (DLG1_3, Q12959) | pKd (DLG3_1, Q92796) | pKd (GORASP1, Q9BQQ3) | pKd (HTRA3, P83110) | pKd (Inadl_2, Q8NI35) | pKd (Inadl_9, Q8NI35) | pKd (LDB3, O75112) | pKd (LNX1_2, Q8TBB1) | pKd (LNX2_2, Q8N448) | pKd (MAGI1_2, Q96QZ7) | pKd (MPDZ_10, O75970) | pKd (MPP6, Q9NZW5) | pKd (NHERF3_1, Q5T2W1) | pKd (NHERF3_3, Q5T2W1) | pKd (NHERF4_1, Q86UT5-2) | pKd (NOS1, P29475) | Binder | other results
below the threshold | below the threshold | below the threshold | below the threshold | below the threshold | below the threshold | 3.69 | 4.15 | below the threshold | 3.71 | below the threshold | below the threshold | 4.04 | below the threshold | below the threshold | below the threshold | 4.48 | below the threshold | 3.7 | 3.82 | ARSAAASNYV [CLDN4, O14493] | pKd (PDLIM1, O00151): below the threshold; pKd (PICK1, Q9NRD5): 4.15; pKd (RAPGEF6, Q8TEU7): below the threshold; pKd (SCRIB_3, Q14160): below the threshold; pKd (SNTA1, Q13424): 3.63; pKd (TJP3_3, O95049): 3.65
below the threshold | below the threshold | 3.83 | 3.51 | below the threshold | below the threshold | below the threshold | 3.58 | below the threshold | below the threshold | below the threshold | below the threshold | below the threshold | below the threshold | below the threshold | below the threshold | below the threshold | below the threshold | below the threshold | 3.56 | QRPYRRGSEI [KCNJ18, B7U540] | pKd (PDLIM1, O00151): below the threshold; pKd (PICK1, Q9NRD5): below the threshold; pKd (RAPGEF6, Q8TEU7): below the threshold; pKd (SCRIB_3, Q14160): 4.05; pKd (SNTA1, Q13424): below the threshold; pKd (TJP3_3, O95049): below the threshold
